Data set [1] deals with the molecule itself. The data set is described as follows: […].
Data set [2] addresses T1, FOXO1-DBD (human, UniProt Q12778 151-266). The data set is described as follows: crystal structure.
Data set [3] deals with T2, FOXC2-DBD (UniProt Q99958 72-171).
T2 sequence: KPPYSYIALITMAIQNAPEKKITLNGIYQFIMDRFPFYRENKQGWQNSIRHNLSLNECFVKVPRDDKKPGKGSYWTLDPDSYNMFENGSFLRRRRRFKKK
Kind of data set: crystal structure.

Data set [4] deals with T3, FOXI1-DBD (UniProt Q12951 119-223).
T3 sequence: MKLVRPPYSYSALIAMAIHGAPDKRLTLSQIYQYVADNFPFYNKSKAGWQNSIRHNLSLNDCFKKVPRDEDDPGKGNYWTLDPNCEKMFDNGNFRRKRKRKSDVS
Kind of data set: EMSA.

The target of data set [5] is FOXO3-DBD (UniProt O43524 158-253). The data set is described as follows: EMSA. On the technique in general: Mobility shift assays separate free from complexed probe on a gel.
The target of data set [6] is T1, FOXO1-DBD. Kind of data set: ITC. For orientation: Isothermal titration calorimetry measures the heat released or taken up as one component is titrated into another.
Data set [7] addresses T2, FOXC2-DBD. The data set is described as follows: EMSA.
Data set [8] concerns the target T4, FOXM1-DBD (UniProt Q08050 222-360).
T4 sequence: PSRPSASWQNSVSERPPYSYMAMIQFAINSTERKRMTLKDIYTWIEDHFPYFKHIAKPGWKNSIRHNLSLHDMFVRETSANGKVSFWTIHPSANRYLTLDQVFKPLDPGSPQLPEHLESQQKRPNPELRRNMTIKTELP
Kind of data set: EMSA.

For data set [9], the target named is FOXO1-DBD Q227R (human, UniProt Q12778 151-266, Q227R). Kind of data set: EMSA.
The target in data set [10] is FOXO1-DBD R225E (human, UniProt Q12778 151-266, R225E). The data set is described as follows: EMSA.
Data set [11] deals with the molecule itself. The data set is described as follows: crystal structure.

B1: FOXO3-DBD (residues 158-253) (domain or fragment)
chain: GNLSYADLITRAIESSPDKRLTLSQIYEWMVRCVPYFKDKGDSNSSAGWKNSIRHNLSLHSRFMRVQNEGTGKSSWWIINPDGGKSGKAPRRRAVS
On to B1, for which, in data set [1], the binding result is “binds”.

B2: FOXI1-DBD (residues 119-223) (domain or fragment)
chain: T3 sequence
In the case of B2, in data set [1], the binding result is “binds”.

B3: DIV2 20-bp crystal DNA (dsDNA)
DNA 1: ACCGTAAACATGTTTACGGT
DNA 2: ACCGTAAACATGTTTACGGT
With B3, the binding result in data set [2] and in [3] was “binds” throughout.

B4: DIV2_26 (dsDNA)
DNA 1: GACGAAGTAAACATGTTTACTTCGTC
DNA 2: GACGAAGTAAACATGTTTACTTCGTC
B4: the binding result in [4], in [5], in data set [7] and in data set [8] was “binds” in each case. Binding in data set [6] was put at a Kd of 150 nM.

B5: FKH_26 (dsDNA)
DNA 1: GACGAAGTAAACACGGCAGGTTCGTC
DNA 2: GACGAACCTGGCGTGTTTACTTCGTC
As for B5, the binding result in data set [9] and in data set [10] was “binds” throughout. This molecule showed a Kd in data set [6] of 1380 nM.

B6: human FOXO1-DBD (residues 151-266) (domain or fragment)
chain: KSSSSRRNAWGNLSYADLITKAIESSAEKRLTLSQIYEWMVKSVPYFKDKGDSNSSAGWKNSIRHNLSLHSKFIRVQNEGTGKSSWWMLNPEGGKSGKSPRRRAASMDNNSKFAKS
Turning to B6, the “stoichiometry N” value in [11] was 2.

The Kd is the constant that tells how readily two partners part at equilibrium. A lower Kd goes with a tighter complex. Usually stoichiometry N stands for a count of units in the complex or per binding partner.

The record behind these values is article PMC8034652 (Nucleic Acids Research, 2021).
